Drawing on PMC12282080 (2025), this text covers koff and Kd for 5 molecules.

The koff is the rate constant with which the complex falls apart. The low end stands for a long-lived complex, the high end for a short-lived complex. The Kd is the equilibrium constant for the complex coming apart. A higher Kd goes with a looser complex.

Changes are numbered by the printed parent chain.

First the molecules themselves.
B1: SD22 monoclonal antibody (human IgG1) (antibody, V domains shown)
VH: QVQLVESGGGVVQPGRSLRLSCAASGFTFSGFGMHWVRQAPGKGLEWVALISYDGSDTYYSDSVKGRFTISRDNSKNTLYLQLKSLRPDDTAVYYCVGDRDYFGSGFFDHWGQGTLVTVSS
VL: DIQMTQSPSSLSASIGDRVTITCRASRHITNHLNWYQHKPGRAPKLLIYEASNLQAGVPSRFSGSGSGTDFTFTISSLQPEDFATYYCQQYDNLPPAFGGGTKVDIK
B2: SD4-X monoclonal antibody (human IgG1) (antibody, V domains shown)
VH: QVQLVESGGGVVQPGRSLRLSCAASGFTFSSYGMHWVRQAPGKGLEWVAVISYDGSNKYYADSVKGRFTISRDNSKNTLYLQMNSLRAEDTAVYYCAKDRDYYGSGFFDYWGQGTLVTVSS
VL: DIQMTQSPSSLSASVGDRVTITCQASQDISNHLNWYQEKPGKVPKLLIYEASNVETGVPSRFSGSGSGTDFTFTISSLQPEDIATYYCQQYDNLPYTFGQGTKLEIK
B3: SD4 monoclonal antibody (human IgG1) (antibody, V domains shown)
VH: B2 VH with T28P, S31G, N57E, Y59N, A88V, F108Y
VL: DIQMTQSPSSLSASVGDRVTITCQASQHISNHLNWYQQKPGTAPTLLIYEASNLETGVPSRFSGSGSGTDFSFTISSLRPEDFATYYCQQYDNFPLTFGPGTTMDIK
B4: SD4-S monoclonal antibody (human IgG1) (antibody, V domains shown)
VH: B2 VH with V12L, S31G, N57E, Y59N, A61G, M83I, A88T, T91R, Y103F
VL: DIQMTQSPSSLSASVGDRVTITCQASQDITKYLNWYQQKPGKAPKLLIFEASNLETGVPSRFSGSGSGTDFTFTISSLQPEDFATYYCQQYGDFPLTFGGGTKVEIK
B5: SD12 monoclonal antibody (human IgG1) (antibody, V domains shown)
VH: EVQLLESGGGLVQPGGSLRLSCAASGFIFSSYAMSWVRQAPGKGLEWVSAISGSGGSTYYADSVKGRFTISRDNSKNTLYLQMNSLRDEDTAVYYCAKDRSYVSSGFFDDWGQGTLVTVSS
VL: B2 VL with H32Y, E38Q, K39R, V43A, Y49F, V54L, D92E, P95L

The target in the first assay is T1, SFTSV Gn glycoprotein (G19-K452, C3 genotype) (SFTSV (severe fever with …)). Nature of the assay: BLI.
Regarding B1, the koff amounted to 4.01e-05 s⁻¹.

The molecule B2 came in with a koff of 0.000108 s⁻¹.

Consider B3, for which the koff was 1.18e-05 s⁻¹.

B4 had a koff of 2.9e-05 s⁻¹.

On to B5, for which the off-rate constant (koff) stood at 0.000179 s⁻¹.

Another assay deals with T1, SFTSV Gn glycoprotein (G19-K452, C3 …). Nature of the assay: BLI. The source holds these as a separate data set. For orientation: BLI is a label-free optical method that tracks binding on a fibre tip over time.
B1 registered a Kd of 0.205 nM.

For the molecule B2, the Kd worked out at 1.11 nM.

Take B4: the Kd was found to be 0.196 nM.

B5: binding was characterised by a dissociation constant (Kd) of 2.37 nM.
